Measured values published in article PMC3949526, “The structure of an authentic spore photoproduct lesion in DNA suggests a basis for recognition”.

B1: SP DNA 16-mer (dsDNA)
DNA 1: ATCCGTTATAACGGAT
DNA 2: ATCCGTTATAACGGAT
modifications: spore photoproduct (5-thyminyl-5,6-dihydrothymine) linking T6 and T7 in each strand
B2: non-SP DNA 16-mer (dsDNA)
DNA 1: ATCCGTTATAACGGAT
DNA 2: ATCCGTTATAACGGAT

Columns and labels:
[1] = biological target: T1, N-terminal fragment of MMLV reverse transcriptase (fingers and palm domains) (Moloney murine leukemia virus, UniProt P03355 683-937); experiment: X-ray crystallography (2.14 A); host-guest complex; SP lesions in central 10 bp, free of protein contacts; Crystallization: protein 2 mM in 50 mM MES pH 6.0, 0.3 M NaCl, 1 mM DTT; DNA 2.5 mM duplex in 10 mM HEPES pH 7.0, 10 mM MgCl2; crystallization buffer and temperature not given in the material; settings: protein: recombinant; tags: 6xHis tag removed with thrombin; chain copies: 2; blunt; self-complementary, 2 copies of one strand
T1 sequence (P03355 683-937): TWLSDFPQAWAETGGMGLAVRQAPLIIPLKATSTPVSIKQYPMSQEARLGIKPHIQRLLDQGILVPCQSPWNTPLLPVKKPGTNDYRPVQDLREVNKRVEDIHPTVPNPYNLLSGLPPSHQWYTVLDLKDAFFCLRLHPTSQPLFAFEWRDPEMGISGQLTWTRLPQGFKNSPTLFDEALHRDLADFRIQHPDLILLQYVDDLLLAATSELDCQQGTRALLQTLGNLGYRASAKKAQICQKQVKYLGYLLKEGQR

[2] = biological target: T1, N-terminal fragment of MMLV reverse …; experiment: X-ray crystallography (1.72 A); host-guest complex; undamaged DNA; Crystallization: protein 2 mM in 50 mM MES pH 6.0, 0.3 M NaCl, 1 mM DTT; DNA 2.5 mM duplex in 10 mM HEPES pH 7.0, 10 mM MgCl2; crystallization buffer and temperature not given in the material; settings: protein: recombinant; tags: 6xHis tag removed with thrombin; chain copies: 2; blunt; self-complementary, 2 copies of one strand

Binder	binding result [1]	binding result [2]
B1	binds	
B2		binds
